This is an account of results in US20240116985A1, “STAPLED PEPTIDES AND METHODS THEREOF” (priority 2020, published 2024).

Starred links: 1 amine or outer side, 2 acyl side, 3 side chain; linkers in the order of their positions; H or OH if unused. Positions of bridges follow the written chain, without caps; N, C: chain ends. Non-standard residues stand in square brackets, D forms with d. Primed or numbered codes have the meaning given here. PyrS2″ = (S)-3-amino-1-((pent-4-en-1-yloxy)carbonyl)pyrrolidine-3-carboxylic acid (stapling residue), C=CCCCOC(=O)N1CC[C@@](N[*:1])(C(=O)[*:2])C1; B5(4) = 2,2-bis(4-pentenyl)glycine = 2-amino-2-(pent-4-en-1-yl)hept-6-enoic acid (stitching residue), C=CCCCC(CCCC=C)(N[*:1])C(=O)[*:2]; B5(5) = 2,2-bis(4-pentenyl)glycine, 2-amino-2-(pent-4-en-1-yl)hept-6-enoic acid (stitching residue), C=CCCCC(CCCC=C)(N[*:1])C(=O)[*:2]; TfeGA = (S)-2-amino-3-((carboxymethyl)(2,2,2-trifluoroethyl)amino)propanoic acid, O=C([C@H](CN(CC(=O)[*:3])CC(F)(F)F)N[*:1])[*:2]; Phe(2-Cl) = N[C@@H](Cc1ccccc1Cl)C(=O)O; Bta = N[C@@H](Cc1csc2ccccc12)C(=O)O; αAllylPro = C=CC[C@@]1(C(=O)O)CCCN1; tBuAla = CC(C)(C)C[C@H](N)C(=O)O; 3Thi = N[C@@H](Cc1ccsc1)C(=O)O; Leu(ol) = CC(C)C[C@H](N)CO; hSer = N[C@@H](CCO)C(=O)O

The labels stand for the following.
B1: I-1215 (peptide)
peptide: Ac-[αAllylPro]D[tBuAla][B5(5)][hSer]DAAFL[PyrS2″][3Thi][Bta]Q-NH2
modifications: staple 1-4, 4-11
B2: I-1212 (peptide)
peptide: Ac-[αAllylPro]D[tBuAla][B5(5)]LDAAFN[PyrS2″][3Thi][Bta]Q-NH2
modifications: staple 1-4, 4-11
B3: I-1221 (peptide)
peptide: Ac-[αAllylPro]N[tBuAla][B5(4)]DDAAFL[PyrS2″][3Thi][Bta]Q-NH2
modifications: staple 1-4, 4-11
B4: I-1222 (peptide)
peptide: Ac-[αAllylPro]S[tBuAla][B5(5)]DDAAFN[PyrS2″][3Thi][Bta]Q-NH2
modifications: staple 1-4, 4-11
B5: I-1210 (peptide)
peptide: Ac-[αAllylPro]D[tBuAla][B5(5)]QDAAFN[PyrS2″][3Thi][Bta]Q-NH2
modifications: staple 1-4, 4-11
B6: I-1226 (peptide)
peptide: Ac-[αAllylPro]L[tBuAla][B5(5)]DDAAFN[PyrS2″][3Thi][Bta]Q-NH2
modifications: staple 1-4, 4-11
B7: I-1224 (peptide)
peptide: Ac-[αAllylPro]Q[tBuAla][B5(5)]DDAAFN[PyrS2″][3Thi][Bta]Q-NH2
modifications: staple 1-4, 4-11
B8: I-1223 (peptide)
peptide: Ac-[αAllylPro]S[tBuAla][B5(5)]DDAAFL[PyrS2″][3Thi][Bta]Q-NH2
modifications: staple 1-4, 4-11
B9: I-1228 (peptide)
peptide: Ac-[αAllylPro][hSer][tBuAla][B5(5)]DDAAFN[PyrS2″][3Thi][Bta]Q-NH2
modifications: staple 1-4, 4-11
B10: I-1225 (peptide)
peptide: Ac-[αAllylPro]Q[tBuAla][B5(5)]DDAAFL[PyrS2″][3Thi][Bta]Q-NH2
modifications: staple 1-4, 4-11
B11: I-1243 (peptide)
peptide: Ac-[αAllylPro]D[tBuAla][B5(4)]D[TfeGA]AAFT[PyrS2″][Phe(2-Cl)][Bta][Leu(ol)]
modifications: staple 1-4, 4-11
B12: I-1211 (peptide)
peptide: Ac-[αAllylPro]D[tBuAla][B5(5)]QDAAFL[PyrS2″][3Thi][Bta]Q-NH2
modifications: staple 1-4, 4-11
B13: I-1214 (peptide)
peptide: Ac-[αAllylPro]D[tBuAla][B5(5)][hSer]DAAFN[PyrS2″][3Thi][Bta]Q-NH2
modifications: staple 1-4, 4-11
B14: I-1229 (peptide)
peptide: Ac-[αAllylPro][hSer][tBuAla][B5(5)]DDAAFL[PyrS2″][3Thi][Bta]Q-NH2
modifications: staple 1-4, 4-11
B15: I-1209 (peptide)
peptide: Ac-[αAllylPro]D[tBuAla][B5(5)]SDAAFL[PyrS2″][3Thi][Bta]Q-NH2
modifications: staple 1-4, 4-11

For one assay, the target named is full-length beta-Catenin (Uniprot ID P35222) (Homo sapiens (Human)) (UniProt P35222). Kind of assay: FP competition: displacement of 5FAM-TCF4(10-53) from full-length beta-catenin.
Target sequence in this assay (P35222 whole entry): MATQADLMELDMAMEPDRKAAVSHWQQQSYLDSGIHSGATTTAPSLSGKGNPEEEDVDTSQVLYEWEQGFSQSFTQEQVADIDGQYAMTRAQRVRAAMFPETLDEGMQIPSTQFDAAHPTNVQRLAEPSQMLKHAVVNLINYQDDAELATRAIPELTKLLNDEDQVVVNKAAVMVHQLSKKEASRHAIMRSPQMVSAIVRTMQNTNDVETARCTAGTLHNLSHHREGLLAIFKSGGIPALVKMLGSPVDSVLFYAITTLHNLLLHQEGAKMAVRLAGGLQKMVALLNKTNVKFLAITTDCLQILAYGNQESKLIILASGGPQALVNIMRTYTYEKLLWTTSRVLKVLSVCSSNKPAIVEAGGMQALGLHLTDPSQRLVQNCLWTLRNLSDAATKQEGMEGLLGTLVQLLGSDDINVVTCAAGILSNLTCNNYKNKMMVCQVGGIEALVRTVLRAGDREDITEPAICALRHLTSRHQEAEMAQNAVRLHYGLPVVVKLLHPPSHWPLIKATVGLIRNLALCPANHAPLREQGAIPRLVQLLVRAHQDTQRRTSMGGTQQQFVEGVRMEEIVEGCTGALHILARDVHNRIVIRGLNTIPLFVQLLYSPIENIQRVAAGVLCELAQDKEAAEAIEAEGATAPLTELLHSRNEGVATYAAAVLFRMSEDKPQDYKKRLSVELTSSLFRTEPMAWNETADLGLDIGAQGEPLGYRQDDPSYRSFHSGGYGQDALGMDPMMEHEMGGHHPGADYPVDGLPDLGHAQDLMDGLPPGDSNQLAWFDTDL
The term EC50 denotes the concentration needed to bring the measured effect to its halfway point. The low end stands for higher potency in that assay, the high end for lower potency in that assay. Take B1: the EC50 came out at 216 nM.

In the case of B2, the 50% effective concentration (EC50) is 8660 nM. This EC50 is about 40-fold higher than that of the molecule before. B3 displayed an EC50 of 14 nM. On to B4, for which the EC50 came out at 511 nM. B5 registered an EC50 of 56 nM. This EC50 lies about 9.1-fold lower than the previous one. The same measure, in the same setting: the value for B6 was 559 nM; that for B7 was 389 nM; that for B8 was 550 nM. B9 had an EC50 of 100 nM. Still for that read-out and setting: the value for B10 was 305 nM.

Regarding B11, the half-maximal effective concentration (EC50) worked out at 82 nM. Still for that read-out and setting: as for B12, the figure is 115 nM. Same read-out and setting: the value for B13 was 116 nM; that for B14 was 134 nM.

With B15, the EC50 is 479 nM.

Another assay shares this target. Kind of assay: fluorescence polarization competition; full-length beta-catenin, 5FAM-TCF4(10-53) probe as competitor. Background: In fluorescence polarisation assays a small probe gives low polarisation when free and higher when bound to something large.
Target sequence in this assay (P35222 2-781 limits assumed): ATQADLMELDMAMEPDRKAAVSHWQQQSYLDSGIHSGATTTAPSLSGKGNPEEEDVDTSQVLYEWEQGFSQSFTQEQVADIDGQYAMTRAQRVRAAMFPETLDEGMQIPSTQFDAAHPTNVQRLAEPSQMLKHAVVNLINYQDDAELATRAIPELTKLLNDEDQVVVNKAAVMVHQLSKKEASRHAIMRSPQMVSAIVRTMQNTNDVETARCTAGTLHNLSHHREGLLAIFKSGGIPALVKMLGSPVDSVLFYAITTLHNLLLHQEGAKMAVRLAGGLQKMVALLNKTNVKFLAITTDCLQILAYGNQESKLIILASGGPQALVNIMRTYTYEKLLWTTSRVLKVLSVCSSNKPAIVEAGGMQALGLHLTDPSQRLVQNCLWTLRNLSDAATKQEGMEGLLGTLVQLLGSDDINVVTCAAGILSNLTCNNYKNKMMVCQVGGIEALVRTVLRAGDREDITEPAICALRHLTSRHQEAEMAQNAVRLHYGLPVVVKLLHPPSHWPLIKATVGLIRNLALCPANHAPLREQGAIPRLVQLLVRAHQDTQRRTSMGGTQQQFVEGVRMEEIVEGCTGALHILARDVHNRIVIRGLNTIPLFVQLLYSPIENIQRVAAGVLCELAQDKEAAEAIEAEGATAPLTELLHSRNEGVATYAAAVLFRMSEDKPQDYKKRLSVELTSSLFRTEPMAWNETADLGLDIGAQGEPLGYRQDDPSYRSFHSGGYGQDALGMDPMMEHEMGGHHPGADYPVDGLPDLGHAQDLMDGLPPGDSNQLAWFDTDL
For orientation: IC50 means the midpoint of a concentration-inhibition curve. B6 yielded an IC50 of 559 nM. B9: the IC50 was determined as 100 nM. Same read-out and setting: the value for B11 was 82 nM; that for B14 was 134 nM.
